We go through 23 sequences from the Immune Epitope Database (IEDB).

One experiment has as its target HLA-A*68:02. The experiment is described as follows: IEDB peptide-MHC binding, cellular MHC/competitive/fluorescence; ≥ and ≤ were set here for values at or beyond the usual limits of such assays.
A further experiment deals with HLA-A*02:01. The experiment is described as follows: IEDB peptide-MHC binding, purified MHC/competitive/radioactivity; ≥ and ≤ were set here for values at or beyond the usual limits of such assays.
The target in another experiment is HLA-A*02:02. The experiment is described as above.
Another experiment concerns the target HLA-A*02:03. Described as above.
Another experiment addresses HLA-A*02:06. The description is as above.
Where [1] appears, read: source organism: Vaccinia virus WR.
Setting [2] is: source organism: Influenza A virus.
[3] abbreviates: source organism: Hepacivirus hominis.

For the sequence KLLNMRDLIV, the IC50 is no less than 70000 nM in the experiment with HLA-A*68:02 (setting [1]); 1.1 nM with HLA-A*02:01 (setting [1]); 194 nM in the experiment with HLA-A*02:02 (setting [1]); 29 nM with HLA-A*02:03 (setting [1]); 2.8 nM with HLA-A*02:06 (setting [1]).
Take IMEIVSHLRA: the IC50 with HLA-A*68:02 (setting [1]) came to 19700 nM; with HLA-A*02:01 (setting [1]) it was 1190 nM; with HLA-A*02:02 (setting [1]), 955 nM; with HLA-A*02:03 (setting [1]) it was 396 nM; in the experiment with HLA-A*02:06 (setting [1]), 4410 nM.
In the case of AIMDKNIML, the IC50 came out at 13000 nM with HLA-A*68:02 (setting [2]); 75 nM in the experiment with HLA-A*02:01 (setting [2]); 153 nM with HLA-A*02:02 (setting [2]); 802 nM with HLA-A*02:03 (setting [2]); 304 nM with HLA-A*02:06 (setting [2]).
For FLLALLSCL, the concentration for half-maximal inhibition (IC50) in the experiment with HLA-A*68:02 (setting [3]) came to 14000 nM; with HLA-A*02:01 (setting [3]), 2.8 nM; with HLA-A*02:02 (setting [3]), 2.6 nM; in the experiment with HLA-A*02:03 (setting [3]), 17 nM; with HLA-A*02:06 (setting [3]), 24 nM.
For FLDWIKDIM, the IC50 came out at 26800 nM with HLA-A*68:02 (setting [1]); 19 nM with HLA-A*02:01 (setting [1]); 0.78 nM with HLA-A*02:02 (setting [1]); 297 nM with HLA-A*02:03 (setting [1]); 162 nM with HLA-A*02:06 (setting [1]).
Consider MLLIAQAEA, for which the IC50 stood at 6150 nM with HLA-A*68:02 (setting [3]); 82 nM with HLA-A*02:01 (setting [3]); 141 nM with HLA-A*02:02 (setting [3]); 123 nM with HLA-A*02:03 (setting [3]); 645 nM with HLA-A*02:06 (setting [3]).
For the sequence KLFTIAMWLL, the IC50 in the experiment with HLA-A*68:02 (source organism: SARS-CoV1) came to 9420 nM; with HLA-A*02:01 (source organism: SARS-CoV1), 30 nM; in the experiment with HLA-A*02:02 (source organism: SARS-CoV1), 8.5 nM; with HLA-A*02:03 (source organism: SARS-CoV1), 709 nM; with HLA-A*02:06 (source organism: SARS-CoV1), 262 nM.
Consider PVLEKKVCAI, for which the IC50 with HLA-A*68:02 (setting [1]) is 39700 nM; with HLA-A*02:01 (setting [1]) it was 1530 nM; in the experiment with HLA-A*02:02 (setting [1]), 541 nM; with HLA-A*02:03 (setting [1]) it was 1190 nM; with HLA-A*02:06 (setting [1]) it was 1040 nM.
In the case of SMMVILPDKI, the IC50 came out at 7290 nM with HLA-A*68:02 (setting [1]); 6.1 nM with HLA-A*02:01 (setting [1]); 28 nM with HLA-A*02:02 (setting [1]); 19 nM with HLA-A*02:03 (setting [1]); 5.7 nM with HLA-A*02:06 (setting [1]).
As to ALVFLILCFT, the IC50 with HLA-A*68:02 (source organism: SARS-CoV1) is 10500 nM; in the experiment with HLA-A*02:01 (source organism: SARS-CoV1) it was 161 nM; in the experiment with HLA-A*02:02 (source organism: SARS-CoV1), 209 nM; with HLA-A*02:03 (source organism: SARS-CoV1) it was 1120 nM; with HLA-A*02:06 (source organism: SARS-CoV1), 229 nM.
With GAFMYTKHSM, the IC50 with HLA-A*68:02 (setting [1]) stood at 9600 nM; with HLA-A*02:01 (setting [1]), 2000 nM; with HLA-A*02:02 (setting [1]) it was 544 nM; with HLA-A*02:03 (setting [1]), 458 nM; with HLA-A*02:06 (setting [1]), 3140 nM.
On to IALCKVTVPT, for which the IC50 with HLA-A*68:02 (setting [1]) is no less than 70000 nM; with HLA-A*02:01 (setting [1]), 2120 nM; with HLA-A*02:02 (setting [1]) it was 1960 nM; in the experiment with HLA-A*02:03 (setting [1]) it was 2220 nM; in the experiment with HLA-A*02:06 (setting [1]) it was 652 nM.
YALCTLLHL: the IC50 is 5620 nM with HLA-A*68:02 (source organism: SARS-CoV1); 8.7 nM with HLA-A*02:01 (source organism: SARS-CoV1); 1320 nM with HLA-A*02:02 (source organism: SARS-CoV1); 768 nM with HLA-A*02:03 (source organism: SARS-CoV1); 1.5 nM with HLA-A*02:06 (source organism: SARS-CoV1).
WMMLLIAQA: the IC50 with HLA-A*68:02 (setting [3]) was 15800 nM; in the experiment with HLA-A*02:01 (setting [3]), 75 nM; with HLA-A*02:02 (setting [3]), 53 nM; with HLA-A*02:03 (setting [3]), 47 nM; with HLA-A*02:06 (setting [3]), 712 nM.
With GLLGCIITSL, the IC50 turned out to be 48900 nM with HLA-A*68:02 (setting [3]); 15 nM in the experiment with HLA-A*02:01 (setting [3]); 35 nM with HLA-A*02:02 (setting [3]); 3.1 nM with HLA-A*02:03 (setting [3]); 316 nM with HLA-A*02:06 (setting [3]).
For the sequence LLNMRDLIVT, the IC50 in the experiment with HLA-A*68:02 (setting [1]) was 33200 nM; with HLA-A*02:01 (setting [1]) it was 2020 nM; with HLA-A*02:02 (setting [1]), 1420 nM; with HLA-A*02:03 (setting [1]) it was 557 nM; with HLA-A*02:06 (setting [1]), 707 nM.
In the case of KLWAQCVQL, the IC50 worked out at 23100 nM with HLA-A*68:02 (source organism: SARS-CoV1); 4.7 nM with HLA-A*02:01 (source organism: SARS-CoV1); 13 nM with HLA-A*02:02 (source organism: SARS-CoV1); 194 nM with HLA-A*02:03 (source organism: SARS-CoV1); 9.5 nM with HLA-A*02:06 (source organism: SARS-CoV1).
Regarding GIAIFNNRNL, the IC50 with HLA-A*68:02 (setting [1]) stood at 11100 nM; with HLA-A*02:01 (setting [1]), 1330 nM; with HLA-A*02:02 (setting [1]), 5.1 nM; with HLA-A*02:03 (setting [1]), 2040 nM; in the experiment with HLA-A*02:06 (setting [1]) it was 4720 nM.
Turning to ILLSRCLWWT, the IC50 is no less than 70000 nM with HLA-A*68:02 (setting [3]); 293 nM in the experiment with HLA-A*02:01 (setting [3]); 4740 nM with HLA-A*02:02 (setting [3]); 1100 nM in the experiment with HLA-A*02:03 (setting [3]); 246 nM with HLA-A*02:06 (setting [3]).
Take LLNVQTLISL: the IC50 with HLA-A*68:02 (setting [1]) turned out to be 14500 nM; with HLA-A*02:01 (setting [1]) it was 73 nM; in the experiment with HLA-A*02:02 (setting [1]) it was 24 nM; with HLA-A*02:03 (setting [1]), 16 nM; with HLA-A*02:06 (setting [1]) it was 97 nM.
In the same order, the values of QIGGEAIFLI are no less than 70000 nM, 383 nM, 8.2 nM, 0.2 nM and 15 nM.
As to YLSDSDNIKI, the IC50 in the experiment with HLA-A*68:02 (setting [1]) turned out to be 7780 nM; with HLA-A*02:01 (setting [1]) it was 53 nM; with HLA-A*02:02 (setting [1]), 16 nM; with HLA-A*02:03 (setting [1]), 109 nM; in the experiment with HLA-A*02:06 (setting [1]), 906 nM.
Regarding ALLRMCALV, the IC50 with HLA-A*68:02 (setting [3]) worked out at 6490 nM; in the experiment with HLA-A*02:01 (setting [3]), 34 nM; with HLA-A*02:02 (setting [3]) it was 83 nM; in the experiment with HLA-A*02:03 (setting [3]), 65 nM; in the experiment with HLA-A*02:06 (setting [3]) it was 417 nM.
